# Source: patent publication US20250345413A1 (VIRAVAXX, published 2025)
# Biological target: T1, human ACE2 protein (GenScript) (human, UniProt Q9BYF1 18-740)
# T1 construct: also called angiotensin-converting enzyme 2; hACE2
# Assay: ELISA, plate-bound ACE2, detection by anti-His antibody
# T1 sequence (Q9BYF1 18-740 limits assumed): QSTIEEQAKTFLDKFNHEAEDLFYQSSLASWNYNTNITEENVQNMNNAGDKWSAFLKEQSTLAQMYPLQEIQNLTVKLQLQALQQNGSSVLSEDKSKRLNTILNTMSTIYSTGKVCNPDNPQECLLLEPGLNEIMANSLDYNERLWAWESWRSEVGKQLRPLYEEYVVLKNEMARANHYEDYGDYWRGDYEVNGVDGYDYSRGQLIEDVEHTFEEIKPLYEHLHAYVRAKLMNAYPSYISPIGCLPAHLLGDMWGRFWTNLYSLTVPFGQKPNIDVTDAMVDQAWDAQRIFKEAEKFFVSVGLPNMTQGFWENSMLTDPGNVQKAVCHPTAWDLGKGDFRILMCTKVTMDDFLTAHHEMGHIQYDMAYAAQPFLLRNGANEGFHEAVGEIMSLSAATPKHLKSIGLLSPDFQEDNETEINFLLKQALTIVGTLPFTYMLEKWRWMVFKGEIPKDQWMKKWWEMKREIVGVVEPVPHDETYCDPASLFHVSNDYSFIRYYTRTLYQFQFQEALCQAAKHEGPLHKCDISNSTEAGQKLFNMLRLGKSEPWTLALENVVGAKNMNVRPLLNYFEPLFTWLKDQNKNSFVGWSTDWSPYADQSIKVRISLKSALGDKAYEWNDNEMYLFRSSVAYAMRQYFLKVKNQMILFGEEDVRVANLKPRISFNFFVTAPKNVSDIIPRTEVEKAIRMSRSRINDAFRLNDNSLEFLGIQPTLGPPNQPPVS
binder,measurement,value
"cysteine-containing, His-tagged recombinant Parietaria allergen, Par j 2 (other, also called negative control protein) EEACGKVVQDIMPCLHFVKGEEKEPSKECCSGTKKLSEEVKTTEQKREACKCIVRATKGISGIKNELVAEVPKKCDIKTTLPPITADFDCSKIQSTIFRGYY",binding result,no binding
